Target: the molecule itself
Test: cross-linking

B1: JAM-L–HA (p513-JAM-L-HA vector), wild type (natural protein, human, UniProt Q86YT9 20-394, looked up)
chain: LNDLNVSPPELTVHVGDSALMGCVFQSTEDKCIFKIDWTLSPGEHAKDEYVLYYYSNLSVPIGRFQNRVHLMGDILCNDGSLLLQDVQEADQGTYICEIRLKGESQVFKKAVVLHVLPEEPKELMVHVGGLIQMGCVFQSTEVKHVTKVEWIFSGRRAKEEIVFRYYHKLRMSVEYSQSWGHFQNRVNLVGDIFRNDGSIMLQGVRESDGGNYTCSIHLGNLVFKKTIVLHVSPEEPRTLVTPAALRPLVLGGNQLVIIVGIVCATILLLPVLILIVKKTCGNKSSVNSTVLVKNTKKTNPEIKEKPCHFERCEGEKHIYSPIIVREVIEEEEPSEKSEATYMTMHPVWPSLRSDRNNSLEKKSGGGMPKTQQAF
stoichiometry N: 2

Reference: article PMC2600739 (The Journal of Cell Biology, 2008)
